Measurements: patent US20180094075A1 (Pfizer, published 2018)

What was measured:
[1] = target: human PTK7 expressed on cells (cancer cell lines with endogenous PTK7; HEK293T-PTK7 over-expressing cells) (human) (UniProt Q13308); assay: flow cytometry, Kasumi-1 cells, 10 µg/ml Ab
[2] = target: human PTK7 expressed on cells (cancer cell lines with endogenous PTK7; HEK293T-PTK7 over-expressing cells) (human) (UniProt Q13308); assay: flow cytometry, H446 cells, 10 µg/ml Ab
[3] = target: human PTK7 expressed on cells (cancer cell lines with endogenous PTK7; HEK293T-PTK7 over-expressing cells) (human) (UniProt Q13308); assay: flow cytometry, NB4 cells, 10 µg/ml Ab
[4] = target: human PTK7 expressed on cells (cancer cell lines with endogenous PTK7; HEK293T-PTK7 over-expressing cells) (human) (UniProt Q13308); assay: flow cytometry, H1299 cells, 10 µg/ml Ab
[5] = target: human PTK7 expressed on cells (cancer cell lines with endogenous PTK7; HEK293T-PTK7 over-expressing cells) (human) (UniProt Q13308); assay: flow cytometry, HCC1937 cells, 10 µg/ml Ab
[6] = target: human PTK7 expressed on cells (cancer cell lines with endogenous PTK7; HEK293T-PTK7 over-expressing cells) (human) (UniProt Q13308); assay: flow cytometry, HCC70 cells, 10 µg/ml Ab
[7] = target: human PTK7 expressed on cells (cancer cell lines with endogenous PTK7; HEK293T-PTK7 over-expressing cells) (human) (UniProt Q13308); assay: flow cytometry, MiaPaca cells, 10 µg/ml Ab
[8] = target: human PTK7 expressed on cells (cancer cell lines with endogenous PTK7; HEK293T-PTK7 over-expressing cells) (human) (UniProt Q13308); assay: flow cytometry, HL60 MX2 cells, 10 µg/ml Ab
[9] = target: human PTK7 expressed on cells (cancer cell lines with endogenous PTK7; HEK293T-PTK7 over-expressing cells) (human) (UniProt Q13308); assay: flow cytometry, EKVX cells, 10 µg/ml Ab
[10] = target: human PTK7 expressed on cells (cancer cell lines with endogenous PTK7; HEK293T-PTK7 over-expressing cells) (human) (UniProt Q13308); assay: flow cytometry, THP-1 cells, 10 µg/ml Ab
[11] = target: human PTK7 expressed on cells (cancer cell lines with endogenous PTK7; HEK293T-PTK7 over-expressing cells) (human) (UniProt Q13308); assay: flow cytometry, Hs700T cells, 10 µg/ml Ab
[12] = target: human PTK7 expressed on cells (cancer cell lines with endogenous PTK7; HEK293T-PTK7 over-expressing cells) (human) (UniProt Q13308); assay: flow cytometry, SKBR3 cells, 10 µg/ml Ab
[13] = target: human PTK7 expressed on cells (cancer cell lines with endogenous PTK7; HEK293T-PTK7 over-expressing cells) (human) (UniProt Q13308); assay: flow cytometry, HEL cells, 10 µg/ml Ab
[14] = target: human PTK7 expressed on cells (cancer cell lines with endogenous PTK7; HEK293T-PTK7 over-expressing cells) (human) (UniProt Q13308); assay: flow cytometry, H596 cells, 10 µg/ml Ab
[15] = target: human PTK7 expressed on cells (cancer cell lines with endogenous PTK7; HEK293T-PTK7 over-expressing cells) (human) (UniProt Q13308); assay: flow cytometry, H526 cells, 10 µg/ml Ab
[16] = target: human PTK7 expressed on cells (cancer cell lines with endogenous PTK7; HEK293T-PTK7 over-expressing cells) (human) (UniProt Q13308); assay: flow cytometry, TF1a cells, 10 µg/ml Ab
[17] = target: human PTK7 expressed on cells (cancer cell lines with endogenous PTK7; HEK293T-PTK7 over-expressing cells) (human) (UniProt Q13308); assay: flow cytometry, DU4475 cells, 10 µg/ml Ab
[18] = target: human PTK7 expressed on cells (cancer cell lines with endogenous PTK7; HEK293T-PTK7 over-expressing cells) (human) (UniProt Q13308); assay: flow cytometry, H358 cells, 10 µg/ml Ab
[19] = target: human PTK7 expressed on cells (cancer cell lines with endogenous PTK7; HEK293T-PTK7 over-expressing cells) (human) (UniProt Q13308); assay: flow cytometry, MDAMB361-DYT2 cells, 10 µg/ml Ab
[20] = target: human PTK7 expressed on cells (cancer cell lines with endogenous PTK7; HEK293T-PTK7 over-expressing cells) (human) (UniProt Q13308); assay: flow cytometry, TF1 cells, 10 µg/ml Ab

Chain of human PTK7 expressed on cells (cancer cell lines with endogenous PTK7; HEK293T-PTK7 over-expressing cells) (human) (Q13308 31-1070 L93P limits assumed): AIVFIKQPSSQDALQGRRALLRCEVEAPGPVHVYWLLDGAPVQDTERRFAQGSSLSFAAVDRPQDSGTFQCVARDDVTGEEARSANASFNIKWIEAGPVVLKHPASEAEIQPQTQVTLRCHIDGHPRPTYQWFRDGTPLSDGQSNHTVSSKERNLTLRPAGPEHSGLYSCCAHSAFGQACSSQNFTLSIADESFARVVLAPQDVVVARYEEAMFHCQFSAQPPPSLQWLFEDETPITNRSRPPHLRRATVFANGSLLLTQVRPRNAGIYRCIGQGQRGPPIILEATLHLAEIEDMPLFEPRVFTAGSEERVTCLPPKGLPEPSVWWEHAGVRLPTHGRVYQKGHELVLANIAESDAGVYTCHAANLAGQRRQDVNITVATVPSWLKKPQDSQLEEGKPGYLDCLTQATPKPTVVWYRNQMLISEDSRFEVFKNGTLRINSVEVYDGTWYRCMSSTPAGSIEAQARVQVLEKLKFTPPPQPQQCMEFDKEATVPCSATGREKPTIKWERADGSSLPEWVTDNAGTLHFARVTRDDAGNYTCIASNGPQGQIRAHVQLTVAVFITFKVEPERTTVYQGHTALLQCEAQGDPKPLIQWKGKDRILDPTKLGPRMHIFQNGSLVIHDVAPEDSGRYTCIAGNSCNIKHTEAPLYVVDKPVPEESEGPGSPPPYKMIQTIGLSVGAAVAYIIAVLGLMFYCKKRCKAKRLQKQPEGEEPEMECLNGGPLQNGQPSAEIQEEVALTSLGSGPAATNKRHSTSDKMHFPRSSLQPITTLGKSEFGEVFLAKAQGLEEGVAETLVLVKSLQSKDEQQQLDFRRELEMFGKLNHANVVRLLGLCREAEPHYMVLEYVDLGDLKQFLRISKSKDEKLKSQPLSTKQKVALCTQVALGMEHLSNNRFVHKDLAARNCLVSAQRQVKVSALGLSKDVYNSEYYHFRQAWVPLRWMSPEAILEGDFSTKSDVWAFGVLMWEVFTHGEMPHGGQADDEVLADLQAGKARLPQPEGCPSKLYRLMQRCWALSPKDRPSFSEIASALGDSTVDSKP

Which results are given for “Negative Control Ab (Table 8) (antibody)”?
Mean Fluorescent Intensity [1]: 5.3; Mean Fluorescent Intensity [2]: 7.1; Mean Fluorescent Intensity [3]: 6.8; Mean Fluorescent Intensity [4]: 3; Mean Fluorescent Intensity [5]: 7.8; Mean Fluorescent Intensity [6]: 9.4; Mean Fluorescent Intensity [7]: 3.5; Mean Fluorescent Intensity [8]: 25.2; Mean Fluorescent Intensity [9]: 3.1; Mean Fluorescent Intensity [10]: 4; Mean Fluorescent Intensity [11]: 4.9; Mean Fluorescent Intensity [12]: 14.9; Mean Fluorescent Intensity [13]: 15.7; Mean Fluorescent Intensity [14]: 21.4; Mean Fluorescent Intensity [15]: 12.2; Mean Fluorescent Intensity [16]: 6.2; Mean Fluorescent Intensity [17]: 3.8; Mean Fluorescent Intensity [18]: 4.5; Mean Fluorescent Intensity [19]: 8.7; Mean Fluorescent Intensity [20]: 5.9
